Assay results reported in publication PMC5389416 (Journal of molecular biology, 2017).

Tests used:
Test in all cases: HDX-MS
Murine RelA(19-321) = Murine RelA(19-321) (mouse, UniProt Q04207 19-321)
[1] = molecular target: T1, Murine N-terminal hexahistidine-p50(39-350) (mouse, UniProt P25799 39-350)
T1 sequence (looked up): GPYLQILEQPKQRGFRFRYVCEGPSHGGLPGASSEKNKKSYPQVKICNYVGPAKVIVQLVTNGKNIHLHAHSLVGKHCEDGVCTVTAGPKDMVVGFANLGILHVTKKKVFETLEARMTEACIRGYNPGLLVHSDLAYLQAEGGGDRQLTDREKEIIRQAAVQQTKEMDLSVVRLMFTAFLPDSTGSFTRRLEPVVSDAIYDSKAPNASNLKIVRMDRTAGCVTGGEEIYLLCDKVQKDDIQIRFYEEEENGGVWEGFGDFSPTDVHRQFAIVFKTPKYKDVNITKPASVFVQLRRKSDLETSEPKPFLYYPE

[2] = molecular target: Murine dimerization domain p50(248-350)/RelA(190-321) (mouse, UniProt P25799 248-350; Q04207 190-321)
Sequence of Murine dimerization domain p50(248-350)/RelA(190-321) (Q04207 190-321, one chain of several): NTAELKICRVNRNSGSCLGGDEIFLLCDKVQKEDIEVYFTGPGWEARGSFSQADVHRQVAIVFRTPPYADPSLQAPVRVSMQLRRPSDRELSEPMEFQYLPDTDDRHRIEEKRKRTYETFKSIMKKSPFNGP

Measured: binding result

Sequence of Murine RelA(19-321) (Q04207 19-321): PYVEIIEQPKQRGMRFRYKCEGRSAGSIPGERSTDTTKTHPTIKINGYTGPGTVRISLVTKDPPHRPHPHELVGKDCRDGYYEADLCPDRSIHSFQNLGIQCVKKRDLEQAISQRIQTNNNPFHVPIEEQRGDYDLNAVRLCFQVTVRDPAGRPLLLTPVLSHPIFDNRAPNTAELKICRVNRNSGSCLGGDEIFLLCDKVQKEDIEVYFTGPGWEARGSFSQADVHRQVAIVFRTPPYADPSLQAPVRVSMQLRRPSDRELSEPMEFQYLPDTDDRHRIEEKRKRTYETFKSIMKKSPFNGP

B1: Homo sapiens IκBα(67-287) (domain or fragment, human, UniProt P25963 67-287, looked up)
chain: KQQLTEDGDSFLHLAIIHEEKALTMEVIRQVKGDLAFLNFQNNLQQTPLHLAVITNQPEIAEALLGAGCDPELRDFRGNTPLHLACEQGCLASVGVLTQSCTTPHLHSILKATNYNGHTCLHLASIHGYLGIVELLVSLGADVNAQEPCNGRTALHLAVDLQNPDLVSLLLKCGADVNRVTYQGYSPYQLTWGRPSTRIQQQLGQLTLENLQMLPESEDEE
binds: all assays above
